Values belong to the binder of their own block, whether it stands above or below them.
Assays:
[1] = target: T1, human FcγRIIb extracellular domain with C-terminal His tag (human, UniProt P31994 43-217); experiment: Biacore SPR
T1 sequence (looked up): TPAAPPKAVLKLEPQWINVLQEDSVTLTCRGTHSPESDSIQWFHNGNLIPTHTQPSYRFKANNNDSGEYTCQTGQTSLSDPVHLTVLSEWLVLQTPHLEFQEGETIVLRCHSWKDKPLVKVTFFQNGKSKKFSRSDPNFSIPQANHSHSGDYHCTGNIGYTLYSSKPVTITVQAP

[2] = target: T2, human FcγRIIa type R extracellular domain with C-terminal His tag (human, UniProt P12318 34-217); experiment: Biacore SPR
T2 sequence (looked up): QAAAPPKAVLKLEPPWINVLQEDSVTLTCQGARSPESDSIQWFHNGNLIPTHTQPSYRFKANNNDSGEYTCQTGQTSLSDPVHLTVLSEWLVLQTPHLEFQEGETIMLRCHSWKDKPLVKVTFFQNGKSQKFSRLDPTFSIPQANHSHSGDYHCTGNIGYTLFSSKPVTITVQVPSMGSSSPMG

human IgA (hIgA) = human IgA (hIgA) (human); experiment: Biacore T200 SPR
[3] = target: T3, biotinylated GPC3 peptide (human, biotin on the C-terminal Lys); experiment: Biacore T200 SPR, peptide on Sensor chip SA
T3 peptide: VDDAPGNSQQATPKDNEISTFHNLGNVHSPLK

[4] = target: T4, human FcγRIIb extracellular domain with C-terminal His tag (human, UniProt P31994 43-217); experiment: SPR
T4 sequence (looked up): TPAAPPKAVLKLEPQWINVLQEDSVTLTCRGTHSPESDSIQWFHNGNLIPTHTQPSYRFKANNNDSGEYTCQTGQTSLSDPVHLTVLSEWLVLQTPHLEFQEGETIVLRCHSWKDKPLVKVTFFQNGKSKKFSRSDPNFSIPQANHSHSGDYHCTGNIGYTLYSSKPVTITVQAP

[5] = target: T5, human FcγRIIa type R extracellular domain with C-terminal His tag (human, UniProt P12318 34-217); experiment: SPR
T5 sequence (looked up): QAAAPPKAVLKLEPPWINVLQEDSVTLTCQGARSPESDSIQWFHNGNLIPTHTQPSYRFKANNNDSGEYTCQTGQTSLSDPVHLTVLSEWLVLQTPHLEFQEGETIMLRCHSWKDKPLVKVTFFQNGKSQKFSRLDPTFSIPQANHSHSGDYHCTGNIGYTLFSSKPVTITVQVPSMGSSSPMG

[6] = target: T4, human FcγRIIb extracellular domain with …; experiment: SPR; remark: listed apart in the source

fold binding against IL6R-BP230/IL6R-L [1]: 1.1 times | fold binding against IL6R-BP230/IL6R-L [2]: 0.9 times
B1: IL6R-BP478/IL6R-L (antibody)
heavy: QVQLQESGPGLVKPSETLSLTCAVSGHSISHDHAWSWVRQPPGEGLEWIGFISYSGITNYNPSLQGRVTISRDNSKNTLYLQMNSLRAEDTAVYYCARSLARTTAMDYWGEGTLVTVSSASTKGPSVFPLAPCSRSTSESTAALGCLVKDYFPEPVTVSWNSGALTSGVHTFPAVLQSSGLYSLSSVVTVPSSSLGTKTYTCNVDHKPSNTKVDKRVESKYGPPCPPCPAPDLLGDDSVFLFPPKPKDTLMISRTPEVTCVVVDVSDEDGEVKFNWYVDGVEVHNAKTKPREEQDNSTYRVVSVLTVLHQDWLNGKEYKCKVSNKALPRPIEKTISKAKGQPREPQVYTLPPSRDELTKNQVSLTCLVKGFYPSDIAVEWESNGQPENNYKTTPPVLDSDGSFFLYSKLTVDKSRWQQGNVFSCSVMHEALHNHYTQESLSLSP
light: not shown

Ca-dependent hIgA-binding activity (fold) (human IgA (hIgA)): 100 times
B2: GA2-IgG1 (antibody, V domains shown)
VH: QVQLVQSGAEVKKPGSSVKVSCKASGGTFSSYAISWVRQAPGQGLEWMGGIIPIFGTANYAQKFQGRVTITADESTSTAYMELSSLRSEDTAVYYCARPRWETAISSDAFDIWGQGTMVTVSS
VL: DIQMTQSPSSLSASVGDRVTITCRASQSISDDLNWYQQKPGKAPKLLIYEASNLQSGVPSRFSGSGSGTDFTLTISSLQPEDFATYYCQQHSSSPLTFGQGTKVEIKR

The remaining lines, values behind:

B3: human IgE (hIgE) (antibody)
heavy: QVQLVQSGAEVKKPGASVKVSCKASGYTFTDYEMHWVRQAPGQGLEWMGALDPKTGDTAYSQKFKGRVTLTADKSTSTAYMELSSLTSEDTAVYYCTRFYSYTYWGQGTLVTVSSASTQSPSVFPLTRCCKNIPSNATSVTLGCLATGYFPEPVMVTWDTGSLNGTTMTLPATTLTLSGHYATISLLTVSGAWAKQMFTCRVAHTPSSTDWVDNKTFSVCSRDFTPPTVKILQSSCDGGGHFPPTIQLLCLVSGYTPGTINITWLEDGQVMDVDLSTASTTQEGELASTQSELTLSQKHWLSDRTYTCQVTYQGHTFEDSTKKCADSNPRGVSAYLSRPSPFDLFIRKSPTITCLVVDLAPSKGTVNLTWSRASGKPVNHSTRKEEKQRNGTLTVTSTLPVGTRDWIEGETYQCRVTHPHLPRALMRSTTKTSGPRAAPEVYAFATPEWPGSRDKRTLACLIQNFMPEDISVQWLHNEVQLPDARHSTTQPRKTKGSGFFVFSRLEVTRAEWEQKDEFICRAVHEAASPSQTVQRAVSVNPGK
light: DVVMTQSPLSLPVTPGEPASISCRSSQSLVHSNRNTYLHWYLQKPGQSPQLLIYKVSNRFSGVPDRFSGSGSGTDFTLKISRVEAEDVGVYYCSQNTHVPPTFGQGTKLEIKRTVAAPSVFIFPPSDEQLKSGTASVVCLLNNFYPREAKVQWKVDNALQSGNSQESVTEQDSKDSTYSLSSTLTLSKADYEKHKVYACEVTHQGLSSPVTKSFNRGEC
binding result [3]: binds

B4: IL6R-BP559/IL6R-L (antibody, human IgG1, kappa)
heavy: QVQLQESGPGLVKPSETLSLTCAVSGHSISHDHAWSWVRQPPGEGLEWIGFISYSGITNYNPSLQGRVTISRDNSKNTLYLQMNSLRAEDTAVYYCARSLARTTAMDYWGEGTLVTVSSASTKGPSVFPLAPSSKSTSGGTAALGCLVKDYFPEPVTVSWNSGALTSGVHTFPAVLQSSGLYSLSSVVTVPSSSLGTQTYICNVNHKPSNTKVDKKVEPKSCDKTHTCPPCPAPELLGGDSVFLFPPKPKDTLMISRTPEVTCVVIDVAEEDGDVKFNWYVDGVEVHNAKTKPREEQDNSTYRVVSVLTVLHQDWLNGKEYKCKVSNKALPAPIEKTISKAKGQPREPQVYTLPPSRDELTKNQVSLTCLVKGFYPSDIAVEWESNGQPENNYKTTPPVLDSDGSFFLYSKLTVDKSRWQQGNVFSCSVMHEALHNHYTQESLSLSP
light: not shown
KD (IIaR)/KD (IIb) [4]: 58.4 | Kd [5]: 16 nM | KD (IIaH)/KD (IIb) [6]: 712
